In the assay the target is wild-type human serum retinol binding protein with an N-terminal hemagglutinin tag (RBP^HA WT) (human, UniProt P02753 19-201). Briefly: ELISA.

The values below come from PMC4409664 (Cell, 2015).

B1: STRA6 (stimulated by retinoic acid 6) membrane receptor with a myc tag (STRA6^myc) (receptor, UniProt Q9BX79 1-667, looked up)
chain: MSSQPAGNQTSPGATEDYSYGSWYIDEPQGGEELQPEGEVPSCHTSIPPGLYHACLASLSILVLLLLAMLVRRRQLWPDCVRGRPGLPSPVDFLAGDRPRAVPAAVFMVLLSSLCLLLPDEDALPFLTLASAPSQDGKTEAPRGAWKILGLFYYAALYYPLAACATAGHTAAHLLGSTLSWAHLGVQVWQRAECPQVPKIYKYYSLLASLPLLLGLGFLSLWYPVQLVRSFSRRTGAGSKGLQSSYSEEYLRNLLCRKKLGSSYHTSKHGFLSWARVCLRHCIYTPQPGFHLPLKLVLSATLTGTAIYQVALLLLVGVVPTIQKVRAGVTTDVSYLLAGFGIVLSEDKQEVVELVKHHLWALEVCYISALVLSCLLTFLVLMRSLVTHRTNLRALHRGAALDLSPLHRSPHPSRQAIFCWMSFSAYQTAFICLGLLVQQIIFFLGTTALAFLVLMPVLHGRNLLLFRSLESSWPFWLTLALAVILQNMAAHWVFLETHDGHPQLTNRRVLYAATFLLFPLNVLVGAMVATWRVLLSALYNAIHLGQMDLSLLPPRAATLDPGYYTYRNFLKIEVSQSHPAMTAFCSLLLQAQSLLPRTMAAPQDSLRPGEEDEGMQLLQTKDSMAKGARPGASRGRARWGLAYTLLHNPTLQVFRKTALLGANGAQP
On to B1, for which the Kd – broadly, a measure of binding affinity in units of concentration – is 59 nM.
